According to the supplement of paper PMC9112550, “Optimization of the antimicrobial peptide Bac7 by deep mutational scanning” (BMC Biology, 2022):

System: Escherichia coli TOP10
Experiment: shrunken log2 fold change of peptide-encoding DNA abundance (4.5 h post-induction vs induction); higher = less antimicrobial activity (less host growth inhibition)
Settings: time post-induction: 4.5 h; library: site-saturation at positions 5, 18, 19, 20
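Further: peptides expressed intracellularly from a pBAD plasmid library in pooled LB shake-flask culture, induced with 0.3% L-arabinose, DNA abundance read by NGS, three biological replicates, DESeq2 with apeglm shrinkage.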

Q: How did the “shrunken log2 fold change” value turn out when RRIRHRPPRLPRPRPRPEMGPRP was run?
A: Its value is 0.00396.

Q: RRIRTRPPRLPRPRPRPWNKPRP was tested. Which “shrunken log2 fold change” value did it give?
A: The value was -0.594.

Q: How did the “shrunken log2 fold change” value turn out when RRIRSRPPRLPRPRPRPFSMPRP was run?
A: The value was -0.0498.

Q: Which “shrunken log2 fold change” value does the source give for RRIRERPPRLPRPRPRPQWDPRP here?
A: The value was 0.0698.

Q: With RRIRWRPPRLPRPRPRPRYLPRP as the sequence, how does the “shrunken log2 fold change” value read?
A: Its value is -0.382.

Q: With RRIRNRPPRLPRPRPRPSVIPRP as the sequence, how does the “shrunken log2 fold change” value read?
A: The value was -0.781.

Q: Which “shrunken log2 fold change” value does the source give for RRIRTRPPRLPRPRPRPKLAPRP here?
A: The value was 0.163.

Q: For RRIRWRPPRLPRPRPRPGKAPRP, which “shrunken log2 fold change” value is on record?
A: The value was 0.0616.

Q: How did the “shrunken log2 fold change” value turn out when RRIRPRPPRLPRPRPRPPNIPRP was run?
A: The value was -0.414.

Q: With RRIRARPPRLPRPRPRPSQPPRP as the sequence, how does the “shrunken log2 fold change” value read?
A: The value was -0.0248.

Q: Which “shrunken log2 fold change” value does the source give for RRIRNRPPRLPRPRPRPPPEPRP here?
A: Its value is 1.1.

Q: Which “shrunken log2 fold change” value does the source give for RRIRCRPPRLPRPRPRPVNEPRP here?
A: Its value is -0.266.

Q: RRIRIRPPRLPRPRPRPFKTPRP was tested. Which “shrunken log2 fold change” value did it give?
A: The value was 0.0132.

Q: Which “shrunken log2 fold change” value does the source give for RRIRVRPPRLPRPRPRPLFWPRP here?
A: Its value is 0.139.

Q: With RRIRPRPPRLPRPRPRPQWTPRP as the sequence, how does the “shrunken log2 fold change” value read?
A: The value was -0.0535.

Q: Which “shrunken log2 fold change” value does the source give for RRIRNRPPRLPRPRPRPDESPRP here?
A: Its value is -0.109.

Q: How did the “shrunken log2 fold change” value turn out when RRIRERPPRLPRPRPRPVRVPRP was run?
A: Its value is 0.247.

Q: How did the “shrunken log2 fold change” value turn out when RRIRARPPRLPRPRPRPRSWPRP was run?
A: The value was 0.533.

Q: With RRIRVRPPRLPRPRPRPQWHPRP as the sequence, how does the “shrunken log2 fold change” value read?
A: The value was -0.311.

Q: How did the “shrunken log2 fold change” value turn out when RRIRMRPPRLPRPRPRPEHLPRP was run?
A: The value was 0.417.

Q: With RRIRKRPPRLPRPRPRPPNNPRP as the sequence, how does the “shrunken log2 fold change” value read?
A: Its value is 0.364.

Q: With RRIRKRPPRLPRPRPRPAFDPRP as the sequence, how does the “shrunken log2 fold change” value read?
A: Its value is 0.451.

Q: How did the “shrunken log2 fold change” value turn out when RRIRYRPPRLPRPRPRPMSCPRP was run?
A: Its value is -0.115.

Q: For RRIRPRPPRLPRPRPRPNRFPRP, which “shrunken log2 fold change” value is on record?
A: The value was -0.0502.

Q: How did the “shrunken log2 fold change” value turn out when RRIRRRPPRLPRPRPRPLEIPRP was run?
A: The value was 0.0856.

Q: With RRIRRRPPRLPRPRPRPHTAPRP as the sequence, how does the “shrunken log2 fold change” value read?
A: The value was 0.313.

Q: How did the “shrunken log2 fold change” value turn out when RRIRCRPPRLPRPRPRPSCNPRP was run?
A: The value was 0.329.

Q: RRIRFRPPRLPRPRPRPPTIPRP was tested. Which “shrunken log2 fold change” value did it give?
A: The value was -0.105.

Q: Which “shrunken log2 fold change” value does the source give for RRIRDRPPRLPRPRPRPSIGPRP here?
A: The value was 0.154.

Q: For RRIRARPPRLPRPRPRPYGVPRP, which “shrunken log2 fold change” value is on record?
A: The value was -0.12.

Q: Which “shrunken log2 fold change” value does the source give for RRIRRRPPRLPRPRPRPIRLPRP here?
A: The value was -0.104.

Q: RRIRNRPPRLPRPRPRPDHGPRP was tested. Which “shrunken log2 fold change” value did it give?
A: The value was -0.319.

Q: With RRIRGRPPRLPRPRPRPYNQPRP as the sequence, how does the “shrunken log2 fold change” value read?
A: The value was -0.104.

Q: With RRIRARPPRLPRPRPRPRMMPRP as the sequence, how does the “shrunken log2 fold change” value read?
A: The value was 0.229.

Q: RRIRMRPPRLPRPRPRPLCNPRP was tested. Which “shrunken log2 fold change” value did it give?
A: Its value is 0.0857.

Q: How did the “shrunken log2 fold change” value turn out when RRIRGRPPRLPRPRPRPGNNPRP was run?
A: Its value is -0.0385.

Q: For RRIRRRPPRLPRPRPRPSDMPRP, which “shrunken log2 fold change” value is on record?
A: The value was -0.463.

Q: Which “shrunken log2 fold change” value does the source give for RRIRPRPPRLPRPRPRPDPHPRP here?
A: The value was 0.0782.

Q: How did the “shrunken log2 fold change” value turn out when RRIRWRPPRLPRPRPRPVMSPRP was run?
A: The value was -0.172.

Q: Which “shrunken log2 fold change” value does the source give for RRIRWRPPRLPRPRPRPCQTPRP here?
A: The value was -0.0122.

Q: How did the “shrunken log2 fold change” value turn out when RRIRIRPPRLPRPRPRPFPKPRP was run?
A: Its value is -0.101.

Q: How did the “shrunken log2 fold change” value turn out when RRIRARPPRLPRPRPRPYHPPRP was run?
A: The value was -0.482.

Q: How did the “shrunken log2 fold change” value turn out when RRIRRRPPRLPRPRPRPWLYPRP was run?
A: Its value is 0.0161.

Q: With RRIRPRPPRLPRPRPRPMSKPRP as the sequence, how does the “shrunken log2 fold change” value read?
A: Its value is -0.276.

Q: For RRIRARPPRLPRPRPRPIHFPRP, which “shrunken log2 fold change” value is on record?
A: Its value is -0.169.

Q: RRIRCRPPRLPRPRPRPDITPRP was tested. Which “shrunken log2 fold change” value did it give?
A: The value was -0.022.

Q: With RRIRPRPPRLPRPRPRPIQVPRP as the sequence, how does the “shrunken log2 fold change” value read?
A: Its value is 0.0596.

Q: RRIRIRPPRLPRPRPRPMVMPRP was tested. Which “shrunken log2 fold change” value did it give?
A: The value was -0.138.

Q: How did the “shrunken log2 fold change” value turn out when RRIRWRPPRLPRPRPRPIQYPRP was run?
A: Its value is -0.101.

Q: How did the “shrunken log2 fold change” value turn out when RRIRKRPPRLPRPRPRPMTVPRP was run?
A: Its value is 0.0686.

Q: For RRIRHRPPRLPRPRPRPECPPRP, which “shrunken log2 fold change” value is on record?
A: Its value is -0.0835.

Q: For RRIRWRPPRLPRPRPRPMHMPRP, which “shrunken log2 fold change” value is on record?
A: Its value is -0.287.

Q: With RRIRGRPPRLPRPRPRPHFGPRP as the sequence, how does the “shrunken log2 fold change” value read?
A: Its value is 0.242.

Q: RRIRKRPPRLPRPRPRPEDFPRP was tested. Which “shrunken log2 fold change” value did it give?
A: Its value is 0.24.

Q: Which “shrunken log2 fold change” value does the source give for RRIRCRPPRLPRPRPRPYLDPRP here?
A: Its value is -0.575.

Q: RRIRHRPPRLPRPRPRPCTVPRP was tested. Which “shrunken log2 fold change” value did it give?
A: Its value is -0.0523.

Q: Which “shrunken log2 fold change” value does the source give for RRIRTRPPRLPRPRPRPPWKPRP here?
A: Its value is -0.107.

Q: RRIRQRPPRLPRPRPRPHTYPRP was tested. Which “shrunken log2 fold change” value did it give?
A: Its value is -0.753.

Q: Which “shrunken log2 fold change” value does the source give for RRIRNRPPRLPRPRPRPWHCPRP here?
A: The value was -0.116.

Q: For RRIRERPPRLPRPRPRPYVHPRP, which “shrunken log2 fold change” value is on record?
A: Its value is -0.00146.

Q: RRIRIRPPRLPRPRPRPYHGPRP was tested. Which “shrunken log2 fold change” value did it give?
A: Its value is -0.0135.

Q: How did the “shrunken log2 fold change” value turn out when RRIRRRPPRLPRPRPRPAFMPRP was run?
A: The value was 0.169.

Q: RRIRVRPPRLPRPRPRPDVNPRP was tested. Which “shrunken log2 fold change” value did it give?
A: The value was -0.172.

Q: RRIRARPPRLPRPRPRPEVSPRP was tested. Which “shrunken log2 fold change” value did it give?
A: The value was 0.431.

Q: How did the “shrunken log2 fold change” value turn out when RRIRKRPPRLPRPRPRPGAMPRP was run?
A: The value was 0.639.

Q: Which “shrunken log2 fold change” value does the source give for RRIRVRPPRLPRPRPRPQTHPRP here?
A: Its value is 0.01.

Q: RRIRDRPPRLPRPRPRPSKLPRP was tested. Which “shrunken log2 fold change” value did it give?
A: Its value is -0.317.

Q: How did the “shrunken log2 fold change” value turn out when RRIRHRPPRLPRPRPRPGYPPRP was run?
A: The value was -0.0459.

Q: How did the “shrunken log2 fold change” value turn out when RRIRSRPPRLPRPRPRPLDNPRP was run?
A: Its value is -0.339.

Q: RRIRERPPRLPRPRPRPYEHPRP was tested. Which “shrunken log2 fold change” value did it give?
A: The value was -0.278.

Q: How did the “shrunken log2 fold change” value turn out when RRIRQRPPRLPRPRPRPAYSPRP was run?
A: The value was -0.051.

Q: For RRIRIRPPRLPRPRPRPYWIPRP, which “shrunken log2 fold change” value is on record?
A: The value was -0.568.

Q: RRIRQRPPRLPRPRPRPIPQPRP was tested. Which “shrunken log2 fold change” value did it give?
A: The value was -0.0321.

Q: How did the “shrunken log2 fold change” value turn out when RRIRFRPPRLPRPRPRPNAGPRP was run?
A: The value was -0.0253.

Q: RRIRDRPPRLPRPRPRPSFRPRP was tested. Which “shrunken log2 fold change” value did it give?
A: The value was -0.198.
